Data as given in US20240190989A1 (BEIGENE SWITZERLAND, published 2024).

T1: CEACAM3 transiently expressed on HEK293 cells (Homo sapiens (Human), UniProt P40198 35-252)
T1 sequence: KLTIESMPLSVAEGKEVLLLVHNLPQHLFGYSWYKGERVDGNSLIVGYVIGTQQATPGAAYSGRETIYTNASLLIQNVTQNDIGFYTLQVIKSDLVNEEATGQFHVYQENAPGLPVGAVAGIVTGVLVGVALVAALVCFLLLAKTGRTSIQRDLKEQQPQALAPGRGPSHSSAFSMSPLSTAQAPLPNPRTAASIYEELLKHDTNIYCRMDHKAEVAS

T2: CEACAM1 (Cat. No. 10822-H08H, Sino Biological) (Homo sapiens (Human), UniProt P13688 35-428)
T2 construct: Bought protein
T2 sequence: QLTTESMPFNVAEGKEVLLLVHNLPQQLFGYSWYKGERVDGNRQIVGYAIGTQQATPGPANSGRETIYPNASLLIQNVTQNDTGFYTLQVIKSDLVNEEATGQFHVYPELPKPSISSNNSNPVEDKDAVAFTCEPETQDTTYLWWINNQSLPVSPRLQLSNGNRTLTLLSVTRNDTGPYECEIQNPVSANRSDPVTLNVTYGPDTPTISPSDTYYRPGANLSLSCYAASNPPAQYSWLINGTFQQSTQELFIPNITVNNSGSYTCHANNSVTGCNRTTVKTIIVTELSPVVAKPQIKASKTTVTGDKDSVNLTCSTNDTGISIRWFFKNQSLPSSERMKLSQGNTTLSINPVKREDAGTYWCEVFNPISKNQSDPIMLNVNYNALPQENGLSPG

T3: human CEACAM6, amino acids 1-320 with C-terminal 6xHis tag (human, UniProt P40199 35-320)
T3 sequence: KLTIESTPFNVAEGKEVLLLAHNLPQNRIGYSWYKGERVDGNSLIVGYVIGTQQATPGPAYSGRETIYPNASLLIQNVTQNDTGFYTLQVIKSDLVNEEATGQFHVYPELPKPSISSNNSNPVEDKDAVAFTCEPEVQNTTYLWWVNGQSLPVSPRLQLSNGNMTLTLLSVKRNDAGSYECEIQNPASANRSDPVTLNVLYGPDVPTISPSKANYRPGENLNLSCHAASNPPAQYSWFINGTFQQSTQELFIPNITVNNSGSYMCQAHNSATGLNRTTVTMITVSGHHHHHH

T4: CEACAM7 transiently expressed on HEK293 cells (Homo sapiens (Human), UniProt Q14002 36-242)
T4 sequence: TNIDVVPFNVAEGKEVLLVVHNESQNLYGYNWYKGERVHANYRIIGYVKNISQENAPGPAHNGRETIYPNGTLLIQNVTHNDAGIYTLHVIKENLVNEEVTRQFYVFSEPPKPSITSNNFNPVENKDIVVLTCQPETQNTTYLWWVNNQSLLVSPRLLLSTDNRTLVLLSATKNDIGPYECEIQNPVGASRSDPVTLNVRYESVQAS

T5: CEACAM8 transiently expressed on HEK293 cells (Homo sapiens (Human), UniProt P31997 35-320)
T5 sequence: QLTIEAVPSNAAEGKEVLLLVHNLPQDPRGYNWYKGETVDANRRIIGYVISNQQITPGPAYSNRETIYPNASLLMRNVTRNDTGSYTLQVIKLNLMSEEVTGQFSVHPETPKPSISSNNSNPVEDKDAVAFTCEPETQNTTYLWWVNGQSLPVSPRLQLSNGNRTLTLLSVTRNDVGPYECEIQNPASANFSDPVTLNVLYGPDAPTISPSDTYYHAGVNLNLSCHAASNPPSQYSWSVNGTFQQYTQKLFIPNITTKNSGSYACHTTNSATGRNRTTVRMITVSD

T6: full-length human CEA on cells (MKN45, LOVO, L929/huCEA, CT26/CEA, CT26-OS8-CEA) (human, UniProt P06731 35-685)
T6 construct: also called CEACAM5; native CEA
T6 sequence: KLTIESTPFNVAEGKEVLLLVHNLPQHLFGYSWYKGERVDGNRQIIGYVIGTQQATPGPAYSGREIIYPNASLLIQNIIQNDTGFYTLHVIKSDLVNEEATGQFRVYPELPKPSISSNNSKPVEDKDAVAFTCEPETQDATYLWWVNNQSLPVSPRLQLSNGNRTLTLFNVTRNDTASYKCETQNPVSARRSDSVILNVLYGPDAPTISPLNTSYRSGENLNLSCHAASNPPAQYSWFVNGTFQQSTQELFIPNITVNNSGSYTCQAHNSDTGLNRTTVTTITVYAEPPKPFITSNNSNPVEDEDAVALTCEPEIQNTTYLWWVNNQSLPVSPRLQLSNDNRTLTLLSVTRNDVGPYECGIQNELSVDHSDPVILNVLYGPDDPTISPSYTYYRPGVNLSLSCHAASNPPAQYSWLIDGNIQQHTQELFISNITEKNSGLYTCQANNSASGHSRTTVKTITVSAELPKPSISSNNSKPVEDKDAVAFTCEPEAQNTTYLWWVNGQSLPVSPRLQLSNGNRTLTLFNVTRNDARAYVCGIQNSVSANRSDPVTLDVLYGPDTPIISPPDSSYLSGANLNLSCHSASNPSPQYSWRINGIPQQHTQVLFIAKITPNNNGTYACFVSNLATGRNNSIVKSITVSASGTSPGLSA


Experiments:
[1] = target: T7, human CD137 ECD-mIgG2a (human); assay: SPR, Format A-CEAxCD137
T7 construct: ECD 24-183 of huCD137 fused to mouse IgG2a Fc; also called huCD137-mIgG2a; huCD137

[2] = target: T7, human CD137 ECD-mIgG2a; assay: SPR, A-CEAxCD137 format
Experimental: Characterization of anti-huCD137 VH domain antibodies were made by SPR assays using BIAcore™ T-200 (GE Life Sciences). Briefly, anti-human IgG (Fc) antibody was immobilized on an activated CM5 biosensor chip (Cat.: BR100839, GE Life Sciences). Anti-huCD137 domain antibodies were flowed over the chip surface and captured by anti-human IgG (Fc) antibody. […] The equilibrium dissociation constant (KD) was calculated as the ratio koff/kₒₙ.
Affinity comparison on CD137 affinity matured variants was made by SPR assays using BIAcore™ T-200 (GE Life Sciences) and flow cytometry as described.

[3] = target: T8, full-length human CD137 on cells (Hut78/huCD137, HEK293 transfectants, JK-NFKB-CD137) (human, UniProt Q07011 24-255); assay: flow cytometry on Hut78/huCD137 cells
T8 construct: also called native CD137; TNFRSF9

[4] = target: T1, CEACAM3 transiently expressed on HEK293 …; assay: flow cytometry on transfected HEK293 cells
Text: (§1) Cell fluorescence was quantified using a flow cytometer (Guava easyCyte™ 8HT, Merck-Millipore, USA).

[5] = target: T2, CEACAM1 (Cat. No. 10822-H08H, Sino …); assay: antigen ELISA, antigens coated at 10 µg/ml, anti-human Fc-HRP [panel A]
[6] = target: T3, human CEACAM6, amino acids 1-320 with …; assay: as above
[7] = target: T4, CEACAM7 transiently expressed on HEK293 …; assay: flow cytometry on transiently transfected HEK293 cells [panel B]
Text: as §1

[8] = target: T5, CEACAM8 transiently expressed on HEK293 …; assay: as above
Text: as §1

[9] = target: T6, full-length human CEA on cells (MKN45, …); assay: flow cytometry on MKN45 cells, no soluble CEA
Experimental: The mixtures were then incubated with 2×10⁵ CEA expressing cells, such as MKN45 cells for 30 minutes at 4° C.

T7 sequence (chain, as listed by the source limits assumed): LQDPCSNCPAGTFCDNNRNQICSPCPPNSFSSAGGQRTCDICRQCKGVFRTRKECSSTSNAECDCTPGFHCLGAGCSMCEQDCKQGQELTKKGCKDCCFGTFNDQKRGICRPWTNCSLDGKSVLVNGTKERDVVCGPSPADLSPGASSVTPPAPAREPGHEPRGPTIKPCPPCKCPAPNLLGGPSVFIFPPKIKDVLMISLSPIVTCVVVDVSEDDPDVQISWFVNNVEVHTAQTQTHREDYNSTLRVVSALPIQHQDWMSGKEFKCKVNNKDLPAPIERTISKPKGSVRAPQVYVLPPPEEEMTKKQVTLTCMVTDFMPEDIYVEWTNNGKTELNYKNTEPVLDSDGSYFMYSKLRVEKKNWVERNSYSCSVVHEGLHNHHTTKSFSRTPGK
T8 sequence (Q07011 24-255 limits assumed): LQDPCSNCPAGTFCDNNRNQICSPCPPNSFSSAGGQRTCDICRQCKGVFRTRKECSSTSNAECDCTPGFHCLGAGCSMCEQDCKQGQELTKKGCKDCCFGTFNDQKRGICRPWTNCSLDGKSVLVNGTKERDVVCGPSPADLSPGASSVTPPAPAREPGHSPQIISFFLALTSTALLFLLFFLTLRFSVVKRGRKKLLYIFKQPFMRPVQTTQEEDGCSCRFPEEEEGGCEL

Kd [1] [nM] | Kd [2] [nM] | EC50 [3] [µg/mL] | binding result [4] | binding result [5] | binding result [6] | EC50 (read off the curve) [9] [µg/mL] | Binder | binding result [7] | binding result [8]
669 | 649 | 3.23 |  |  |  |  | Format A-BGA-7556 (bispecific antibody, human IgG1, kappa, also called BGA-7556 Format A-CEAxCD137) heavy: QVQLVQSGAEVKKPGASVKVSCKASGYIFTSYYLHWVRQAPGQGLEWIGYINPQTGKTSYAQKFQGRVTMTRDTSTSTVYMELSSLRSEDTAVYYCAREYGNYNYPLDYWGQGTLVTVSSASTKGPSVFPLAPSSKSTSGGTAALGCLVKDYFPEPVTVSWNSGALTSGVHTFPAVLQSSGLYSLSSVVTVPSSSLGTQTYICNVNHKPSNTKVDKKVEPKSCDKTHTCPPCPAPPAAGPSVFLFPPKPKDTLMISRTPEVTCVVVDVSHEDPEVKFNWYVDGVEVHNAKTKPREEQYNSTYRVVSVLTVLHQDWLNGKEYKCKVSNKALAAPIEKTISKAKGQPREPQVYTLPPSREEMTKNQVSLTCLVKGFYPSDIAVEWESNGQPENNYKTTPPVLDSDGSFFLYSKLTVDKSRWQQGNVFSCSVMHEALHNHYTQKSLSLSPGKGGGGSEVQLLESGGGLVQPGGSLRLSCAASGFTLSAEDVGWVRQAPGKGLEWVSAILDFGGSTYYAESVKGRFTISRDNAKNTLYLQMSSLRAEDTAVYYCARVVYHAGGGVTFDYRGQGTQVTVSS light: DIQMTQSPSSLSASVGDRVTITCRASENQYGYLAWYQQKPGKVPKLLIYNYKNLVEGVPSRFSGSGSGTDFTLTISSLQPEDVATYYCQHHLGTPYTFGQGTKVEIKRTVAAPSVFIFPPSDEQLKSGTASVVCLLNNFYPREAKVQWKVDNALQSGNSQESVTEQDSKDSTYSLSSTLTLSKADYEKHKVYACEVTHQGLSSPVTKSFNRGEC |  | 
 |  |  | no binding (tested: 2 ug/ml) | no binding (tested: not shown) | no binding (tested: not shown) | ~0.8 | BGA113K (BGA113 with Y57K in the heavy chain) (antibody, human IgG1, V domains shown) VH: QVQLVQSGAEVKKPGASVKVSCKASGYIFTSYYLHWVRQAPGQGLEWIGYINPQTGKTSYAQKFQGRVTMTRDTSTSTVYMELSSLRSEDTAVYYCAREYGNYNYPLDYWGQGTLVTVSS VL: DIQMTQSPSSLSASVGDRVTITCRASENQYGYLAWYQQKPGKVPKLLIYNYKNLVEGVPSRFSGSGSGTDFTLTISSLQPEDVATYYCQHHLGTPYTFGQGTKVEIK | no binding (tested: 2 µg/ml (not on the sheet)) | no binding (tested: 2 µg/ml (not on the sheet))
